Reference: patent US6677433B2 (The Regents of the University of California, priority 2001, dated 2004)

Tests used:
[1] = biological target: T1, glutaredoxin (Escherichia coli, UniProt P68688); test: Reduction by glutaredoxin relative to thioredoxin (mBBr/SDS-PAGE, densitometric scanning); format: biochemical; details: glutathione reductase, NADPH
T1 construct: gift of Professor A. Holmgren
T1 sequence (P68688 1-85): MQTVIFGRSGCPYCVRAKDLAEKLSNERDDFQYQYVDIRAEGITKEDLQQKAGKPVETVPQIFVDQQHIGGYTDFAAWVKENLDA
Procedure: Direct reduction of the proteins under study was determined by a modification of the method of Crawford et al. (Crawford, N. A. et al. (1989), Arch. Biochem. Biophys. 271:223-239). The reaction was carried out in 100 mM potassium phosphate buffer, pH 7.1, containing 10 mM EDTA and 16% glycerol in a final volume of 0.1 ml. As indicated, 0.7 μg (0.1 μM) NTR and 1 μg (0.8 μM) thioredoxin (both routinely from E. coli were added to 70 μl of the buffer solution containing 1 mM NADPH and 10 μg (2 to 17 μM) of target protein. When thioredoxin was reduced by dithiothreitol (DTT, 0.5 mM), NADPH and NTR were omitted. Assays with reduced glutathione were performed similarly, but at a final concentration of 1 mM. After incubation for 20 min, 100 nmoles of mBBr were added and the reaction was continued for another 15 min. To stop the reaction and derivatize excess mBBr, 10 μl of 10% SDS and 10 μl of 100 mM β-mercaptoethanol were added and the samples were then applied to the gels. […]
This ability was tested, using glutaredoxin from E. coli and the seed proteins currently under study. Reduction activity was monitored by the mBBr/SDS polyacrylamide gel electrophoresis procedure coupled with densitometric scanning.

[2] = biological target: T2, trypsin (Bos taurus, UniProt P00760); test: Heat stability of trypsin inhibitors (trypsin activity, azocasein); format: biochemical
T2 construct: purchased Sigma Chemical Co. (St. Louis, Mo.) T8640
T2 sequence (P00760 24-246): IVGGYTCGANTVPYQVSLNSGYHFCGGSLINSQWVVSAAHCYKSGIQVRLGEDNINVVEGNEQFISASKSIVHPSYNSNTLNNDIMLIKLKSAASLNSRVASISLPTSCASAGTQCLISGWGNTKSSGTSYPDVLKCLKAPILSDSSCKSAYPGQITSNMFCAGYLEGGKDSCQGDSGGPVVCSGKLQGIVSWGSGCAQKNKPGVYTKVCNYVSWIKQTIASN
Procedure: Unless indicated, the reduction of the trypsin inhibitors (0.4 mg/ml) was carried out in 0.1 ml of 20 mM sodium phosphate buffer, pH 7.9 containing 10 mM EDTA at 30° C. for 2 hours. The concentrations of thioredoxin, NTR, and NADPH were 0.024 mg/ml, 0.02 mg/ml, and 0.25 mM, respectively. […] Following reduction, aliquots of the inhibitor mixture were withdrawn either for determination of trypsin inhibitory activity or proteolytic susceptibility. In the subtilisin tests, the inhibitor mixture (50 μl) was directly mixed with subtilisin and incubated at room temperature for 1 hour. With the wheat protease preparation, the pH of the inhibitor mixture (50 μL) was first adjusted to 4.7 by mixing with 35 μl of 200 mM sodium acetate, pH 4.6; 10 μl of the wheat protease preparation was then added and incubation was continued for 2 hours at 37° C. To stop digestion with subtilisin, 2 μl of 100 mM phenylmethylsulfonyl fluoride (PMSF) and 10 μl of 10% SDS were added to the digestion mixture. With the plant protease preparation, digestion was stopped by adding an equal volume of SDS sample buffer [0.125 M Tris-HCl, pH 6.8, 4% (w/v) SDS, 20% (v/v) glycerol, 10% (v/v) β-mercaptoethanol, and 0.02% (w/v) bromophenol blue]. Proteolytic products were analyzed by electrophoresis with 12% or 16% SDS polyacrylamide slab gels (Laemmli, 1970). The dried slab gels were scanned with a laser densitometer (Pharmacia-LKB UltraScan XL) and the peak area of the KTI or BBTI protein band was obtained by integration with a Pharmacia GelScan XL software program.
Thioredoxin and NTR were assayed as previously described by Florencio et al. (1988). Trypsin activity was measured in 50 mM Tris-HCl, pH 7.9, by following the increase in absorbance at 253 nm with N-benzoyl-L-arginine ethyl ester as substrate (Mundy et al., 1984) or by the release of azo dye into the trichloroacetic acid (TCA)-soluble fraction from azocasein substrate (see below). For trypsin inhibition assays, trypsin (5 to 10 μg) was preincubated with appropriate amounts of KTI or BBTI for 5 minutes at room temperature in 50 mM Tris-HCl, pH 7.9 and proteolytic activity was then determined. While the two substrates yielded similar data, results are presented with only one substrate.
The question arises as to whether reduction by thioredoxin yields similar results. The results as shown in TABLE XII provide a positive answer to this question. When heated at 80° C. for 15 minutes, the thioredoxin-reduced form of KTI completely lost its ability to inhibit trypsin, whereas its oxidized counterpart retained about half of the original activity (Table XII). […] Nonetheless, as with KTI, the reduced form of BBTI was fully inactivated by heat (Table XII). […]

B1: Soybean Kunitz: Kunitz soybean trypsin inhibitor (protein, UniProt P01070 25-205, looked up)
Trypsin inhibitor A: DFVLDNEGNPLENGGTYYILSDITAFGGIRAAPTGNERCPLTVVQSRNELDKGIGTIISSPYRIRFIAEGHPLSLKFDSFAVIMLCVGIPTEWSVVEDLPEGPAVKIGENKDAMDGWFRLERVSDDEFNNYKLVFCPQQAEDDKCGDIGISIDHDDGTRRLVVSKNKPLVVQFQKLDKESL
percentage reduction relative to E. coli thioredoxin [1]: ineffective
Relative Trypsin Activity, inhibitor heated 15 min at 80° C., Oxidized [2]: 52.3
Relative Trypsin Activity, inhibitor heated 15 min at 80° C., Reduced [2]: 98.7
Relative Trypsin Activity, inhibitor unheated, Reduced [2]: 76.4
Relative Trypsin Activity, inhibitor unheated, Oxidized ([2]; no inhibitor = 100, azocasein): 26.6
